These results are taken from publication PMC12751054, “Investigating the conformational landscape of human histidine-rich glycoprotein using amide HDX-MS” (Biochemical Journal, 2025).

Data set [1] has as its target Histidine-rich glycoprotein (HRG), enzymatically deglycosylated, purified from human pooled plasma (human) (UniProt P04196). The experiment in a line: mass photometry; HRG at 50 nM in 50 mM Tris-HCl, 140 mM NaCl, 2 mM EDTA, pH 7.4; TwoMP (Refeyn); monomer and dimer.
For data set [2] the target is unchanged. As to the kind of experiment: mass photometry; HRG at 200 nM in 50 mM Tris-HCl, 140 mM NaCl, 2 mM EDTA, pH 7.4; TwoMP (Refeyn); monomer and dimer.
Data set [3] concerns the molecule itself. The experiment in a line: mass photometry; HRG at 50 nM in 50 mM Tris-HCl, 140 mM NaCl, 2 mM EDTA, pH 7.4; TwoMP (Refeyn); monomer and dimer.

Take “Histidine-rich glycoprotein (HRG), enzymatically deglycosylated, purified from human pooled plasma (from UniProt P04196 19-525) (natural protein)”: the stoichiometry N in data set [1] and in data set [2] was 2 in each case.

B1: Histidine-rich glycoprotein (HRG), native (fully glycosylated), purified from human pooled plasma (natural protein, UniProt P04196 19-525, looked up)
chain: VSPTDCSAVEPEAEKALDLINKRRRDGYLFQLLRIADAHLDRVENTTVYYLVLDVQESDCSVLSRKYWNDCEPPDSRRPSEIVIGQCKVIATRHSHESQDLRVIDFNCTTSSVSSALANTKDSPVLIDFFEDTERYRKQANKALEKYKEENDDFASFRVDRIERVARVRGGEGTGYFVDFSVRNCPRHHFPRHPNVFGFCRADLFYDVEALDLESPKNLVINCEVFDPQEHENINGVPPHLGHPFHWGGHERSSTTKPPFKPHGSRDHHHPHKPHEHGPPPPPDERDHSHGPPLPQGPPPLLPMSCSSCQHATFGTNGAQRHSHNNNSSDLHPHKHHSHEQHPHGHHPHAHHPHEHDTHRQHPHGHHPHGHHPHGHHPHGHHPHGHHPHCHDFQDYGPCDPPPHNQGHCCHGHGPPPGHLRRRGPGKGPRPFHCRQIGSVYRLPPLRKGEVLPLPEANFPSFPLPHHKHPLKPDNQPFPQSVSESCPGKFKSGFPQVSMFFTHTFPK
modifications: N-linked glycans at Asn63, Asn125, Asn202 and Asn344; O-linked glycans at Thr273 and Thr274
notes: Histidine-rich glycoprotein, human, UniProt P04196; printed residue numbers run to 525; Pooled plasma; also called native HRG; plasma-derived human HRG
For the molecule B1, in data set [3], the “stoichiometry N” value came to 2.

The term stoichiometry N denotes the number of molecules, sites or subunits per partner or assembly.
